Where no end group is shown, it is not given here.
T1: APC-55, a peptide corresponding to amino acids 2-55 of human APC (human)
T1 peptide: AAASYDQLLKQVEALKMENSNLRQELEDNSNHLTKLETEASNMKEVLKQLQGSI

B1: anti-APCp1 polypeptide probe (designed binder)
peptide: MAAKGDQLKKEVEALEYENSNLRKKLEDHKKKLTKLKTEISNAKKMLKQLYASI

Assays:
APC protein = assay: Precipitation of APC from human colon cancer cell line lysates with biotinylated probe and streptavidin particles; type: binding; settings: Western blot with APC antibody
Protocol: Precipitation experiments were carried out in order to determine whether the anti-APCp1 polypeptide probe was capable of detecting the low in vivo levels of APC which are typically present in normal and tumor cells. FIG. 7 is a schematic representation of the strategy used. Briefly, cell lines which produce a normal (i.e., full length human APC) and mutant (i.e., truncated human APC) were lysed, and the lysate combined with either biotinylated […] or biotinylated anti-APC monoclonal antibody. Molecules bound to the biotinylated probes were collected by binding to streptavidin, and the bound molecules released from the beads followed by SDS-PAGE, blotting of the gels, and detection with a biotinylated APC antibody. […] was detected on X-ray film. These steps are elaborated in more detail as follows.
Cells were harvested at 90-100% confluency. Cells were washed twice with ice-cold Dulbecco's phosphate buffered saline (Gibco BRL) containing magnesium chloride and calcium chloride, scraped into 15 mL ice cold D-PBS and pelleted in a Beckman J-6 centrifuge for 5 minutes at 4° C. The cell pellet was resuspended in 1 mL ice-cold phosphate buffer, pH 8, containing 0.2% NP-40, 400 μg/mL of Pefabloc SC (Boehringer Mannheim) and 10 μg/mL each of leupeptin, pepstatin, and aprotinin. […]

[1] = biological target: T1, APC-55, a peptide corresponding to …; assay: thermal denaturation followed by circular dichroism at 222 nm
Protocol: (§1) CD spectra (180–300 nm) for the APC-55 and anti-APCp1 peptides alone and in combination were recorded in a 1 mm quartz cuvette at 5° C. using an Aviv 62DS circular dichroism spectrophotometer. The concentrations of peptide stocks were determined optically by the method of Gill and vonHippel, *Anal. Biochem* 182:319–326 (1989). Peptide stocks were diluted in 10 mM KPO_4, 100 mM KF, pH 7.0. Thermal denaturations were carried out in steps of 1–3° C. with 2 minutes for equilibration and one minute for data averaging. Thermal transitions were >95% reversible. The results in FIGS. 3 and 4 obtained with the APC-55 alone are shown by open circles (○), with the anti-APCp1 alone by squares (□), and with an equimolar mixture of APC-55 and anti-APCp1 with closed circles (●).

[2] = biological target: T1, APC-55, a peptide corresponding to …; assay: thermal stability at 20 µM peptide in PBS (pH 7.0), mixture
[3] = thermal stability at 20 µM peptide in PBS (pH 7.0), peptide alone
[4] = biological target: T1, APC-55, a peptide corresponding to …; assay: thermal denaturation by CD at 222 nm, equimolar mixture, 8.0 µM
Protocol: as §1

[5] = biological target: T1, APC-55, a peptide corresponding to …; assay: thermal denaturation by CD at 222 nm, equimolar mixture, 20.0 µM
Protocol: as §1

[6] = biological target: T1, APC-55, a peptide corresponding to …; assay: thermal denaturation by CD at 222 nm, equimolar mixture, 75.0 µM
Protocol: as §1

[7] = biological target: T1, APC-55, a peptide corresponding to …; assay: native acrylamide gel electrophoresis, judged by the sensitivity of detection
Protocol: Native acrylamide gel electrophoresis was used as a direct test of heterodimer specificity. Samples of the individual peptides and an equimolar mixture of the peptides were prepared at 0.6 mM and diluted two-fold in 0.2% (w/v) methyl green, 20% glycerol, 750 mM beta-alanine acetate pH 6.0. Gels contained a separating gel of 7.5% acrylamide in 375 mM beta-alanine acetate, pH 4.0. Samples were run for 2.5 hours at 100 volts, and the gels were fixed with 2% glutaraldehyde and stained for at least 1 hour in 0.2% Coomassie Brilliant Blue in 50% methanol, 10% acetic acid (v/v). Destaining was carried out overnight in the same solvent lacking the dye.
The data presented herein was surprising in view of the prior art reports of the sufficiency of e':g interactions for dimerization specificity of coiled coil proteins [O'Shea et al. (1992), supra; O'Shea et al. (1993) supra; Krylov et al (1994) EMBO J. 13:2849–2861].

[8] = thermal denaturation by CD at 222 nm, peptide alone (homo-oligomer), 8.0 µM
[9] = thermal denaturation by CD at 222 nm, peptide alone (homo-oligomer), 20.0 µM
[10] = thermal denaturation by CD at 222 nm, peptide alone (homo-oligomer), 75.0 µM

Row | Molecule | binding to / precipitation of wild-type and mutant APC at endogenous cell concentrations (APC protein) | increase in the thermal melting transition [1] [° C.] | Tm [2] [° C.] | Tm [3] [° C.] | Apparent Tm [4] [° C.] | Apparent Tm [5] [° C.] | Apparent Tm [6] [° C.] | preference for heterodimer over homodimers (fold) [7] [fold] | Apparent Tm [8] [° C.] | Apparent Tm [9] [° C.] | Apparent Tm [10] [° C.]
1 | biotinylated-anti-APCp1: N-terminally biotinylated anti-APCp1 with Met, an additional Leu8Val mutation and Glu-Asp-Glu at the C-terminus (MAAKGDQVKKEVEALEYENSNLRKKLEDHKKKLTKLKTEISNAKKMLKQLYASIEDE; not fully specified (N-terminus); also: biotin attached via a long spacer arm) | precipitated truncation mutants and full-length APC at endogenous cell concentrations |  |  |  |  |  |  |  |  |  | 
2 | B1 |  | > 10 | 54.3 | 52.3 | 50.6 | 54.3 | 64.7 | ≥ 100 | 45 | 52.3 | 59.6

Source: patent publication US6303317A, “Peptide probes and methods for making the same” (The Regents of the University of California, priority 1998, dated 2001)
